Measurements published in the DeepSol protein solubility set.

Experiment: soluble on expression in E. coli; label from the status in PepcDB or PDB records

Row | Sequence | soluble on expression in E. coli
1 | MATQQAKILCCGDVNGNFVELIKKISTTEKKNGPFDSLFCVGEFFGDDDDSNEKVINGNIEFPIPTYILGPANPRYSYLYPEESIEFSSNLTYLGKKGLLNTASGLQIAYLSGVEGSSKDLSCFDKADVEELLIPLGTQVGFSGTDILLTSVWPADIARHSHNQPSKPQPGSVLLSKLAAHLKPRYHFAGLGVHYERQPYRNHRVLLEPARHTTRFIGLAAIGNPEKQKWLYACNVKPMRKMEKEELTAQPPNASEFPYRELLEEIAAKETLSRMNGNGQRPEGSQYRFEMGGAEDGAGNGRKRHNDGGNDGPRNKQPVGPCWFCLSNVDAEKHLVVAIGNKCYAAMPKGPLTEDHVMVLSVGHIQSQVSAPVEVRDEIEKFKSAFTLMANKQGKALVTFERNFRTQHLQVQMVMIDKSSSKALKSSFTTAAACAGFELVTMGPDESLLDMVNEGCPYFVAELPDGSKLFTRSMKGFPLHFGREVLASTPILDCEDKVDWKACVLAKEKEVELVNKLKSDFKPFDFTAEDDSD | not soluble
2 | MNRILLYVHFNKYNKISAHVYYQLEQMRSLFSKIVFISNSKVSHEDLKRLKNHCLIDEFLQRKNKGFDFSAWHDGLITMGFDKLEEFDSLTIMNDTCFGPIWEMAPYFENFEEKKAVDFWGITNNRGTKAFKEHVQSYFMTFKNQVIQNKVFQQFWQSIIEYENVQEVIQHYETQLTSILLNEGFSYQTVFDTRKAESSFMPHPDFSYYNPTAILKHHVPFIKVKAIDANQHIAPYLLNLIRETTNYPIDLIVSHMSQISLPDAKYLLSQKYLNCQRLAKQTCQKVAVHLHVFYVDLLDEFLTAFEDWNFHYDLFITTDSDIKRKEIKEILQRKGKTADIRVTGNRGRDIYPMLLLKDKLSQYDYIGHFHTKKSKEADFWAGESWRKELIDMLVKPADSILSAFETDDIGIIIADIPSFFRFNKIVNAWNEHLIAQEMMSLWRKMDVKKQIDFQAMDTFVMSYGTFVWFKYDALKSLFDLELTQNDIPSEPLPQNSILHAIERLLVYIAWGNSYDFRILEHHHHHH | not soluble
3 | MAVESRSRVTSKLVKAHRAMLNSVTQEDLKVDRLPGADYPNPSKKYSSRTEFRDKTDYIMYNPRPRDEPSSENPVSVSPLLCELAAARSRIHFNPTETTIGIVTCGGICPGLNDVIRSITLTGINVYNVKRVIGFRFGYWGLSKKGSQTAIELHRGRVTNIHHYGGTILGSSRGPQDPKEMVDTLERLGVNILFTVGGDGTQRGALVISQEAKRRGVDISVFGVPKTIDNDLSFSHRTFGFQTAVEKAVQAIRAAYAEAVSANYGVGVVKLMGRDSGFIAAQAAVASAQANICLVPENPISEQEVMSLLERRFCHSRSCVIIVAEGFGQDWGRGSGGYDASGNKKLIDIGVILTEKVKAFLKANKSRYPDSTVKYIDPSYMIRACPPSANDALFCATLATLAVHEAMAGATGCIIAMRHNNYILVPIKVATSVRRVLDLRGQLWRQVREITVDLGSDVRLARKLEIRRELEAINRNRDRLHEELAKL | soluble
4 | MVKLIHTLADHGDDVNCCAFSFSLLATCSLDKTIRLYSLRDFTELPHSPLKFHTYAVHCCCFSPSGHILASCSTDGTTVLWNTENGQMLAVMEQPSGSPVRVCQFSPDSTCLASGAADGTVVLWNAQSYKLYRCGSVKDGSLAACAFSPNGSFFVTGSSCGDLTVWDDKMRCLHSEKAHDLGITCCDFSSQPVSDGEQGLQFFRLASCGQDCQVKIWIVSFTDILARRTEHQLKQFTEDWSEEDVSTWLCAQDLKDLVGIFKMNNIDGKELLNLTKESLADDLKIESLGLRSKVLRKIEELRTKVKSLSSGIPDEFICPITRELMKDPVIASDGYSYEKEAMENWISKKKRTSPMTNLVLPSAVLTPNRTLKMAINRWLETHQK | soluble
5 | MKHSGYLWAIGKNVWKRWKKRFFVLVQVSQYTFAMCSYREKKAEPQELLQLDGYTVDYTDPQPGLEGGRAFFNAVKEGDTVIFASDDEQDRILWVQAMYRATGQSHKPVPPTQ | soluble
6 | MFWKFLVSGLVGSACSAYHRGPTNVSLALDPPTLSIIMDPSKDIVPIRAVIVGGGYAGSKTAYQLDSMFAVTHIDEKNFYELTNDIIPIITNPWKEDVNPKACRRMMVLHRYYLKRSNVVTGTVIGVDAKQVYLRDGRTVPYDLLFLATGERKPFPFQTRERTISGRVQELKRFNEFLQSCKKVAVVGGGPVGTSLAHDLASTRPDLQVHLFHQRAELLPRLPGVCRRHAQEKLLSNPNLHLHLLTRVTDIDGVVLPSNGDKAASSSSPARHSCAGQLVNPPTSNAAVAESSLTLATTNAPWWRSLLNTVWPRRGVVPDQYSVHYDTLQSKVQQQPSILQQVYYGKRDEVAECGVVQARGVEEGFDYVFALTGDTPRPIQCDELEGRSRKLPNILREHETRDGHYRVSTLMQFLDHPNIFGVGRCTNLPVMRGYGSSDIETRTLFRELNSVISNPTTMFLHSRDGVQLAHMRIPRIHVRLGVDDAVGCTPWSGGMTGVSSVHEFMQDRSYLLREFQKPVFYKQQDQAKVKQRMSQWMEEEITDIVDFSHC | not soluble
7 | MVAGLTNGELIAPMTYEETMTSDFFEAWFQKFLLPTLTTPSVIIMDNARFHRMGKLELLCEEFGYKLLPLPPYSPEYNPIEKTWAHIKKHLKKVLPSCNTFYEALLSCSCFNLEHHHHHH | not soluble
8 | ASHMQRIAVTAEGPGLDGLVDPRFGRAAGFVVVDAATMAAEYVDNGASQTLSHGAGINAAQVLAKSGAGVLLTGYVGPKAFQALQAAGIKVGQDLEGLTVRQAVQRFLDGQVPMAAGPNK | soluble
9 | SVFYFTSSSVNSSAYTIYMGKDKYENEDLIKHGWPEDIWFHVDKLSSAHVYLRLHKGENIEDIPKEVLMDCAHLVKANSIQGCKMNNVNVVYTPWSNLKKTADMDVGQIGFHRQKDVKIVTVEKKVNEILNRLEKTKVERFPDLAAEKECRDREERNEKKAQIQEMKKREKEEMKKKREMDELRSYSSLMKVENMSSNQDGNDSDEFM | soluble
10 | MGSDKIHHHHHHMVTLEPENKVRKILITDCADAKGLIAKITGVCFAHQLNIIKNTEFVDRIQGRFFMRTVLEGVFDDASLLKALSEVLPAQNHTKLVAADKKRIVVMVTKEAHCLGDLLMKAYYGGLDVDIAAVVGNYDSLRNLTEKFDIPFHHVCHQGLDRLEHEQAILKIVNGYQPDYVVLAKYMRVLTPEFVCAYPDRIINIHHSFLPAFIGASPYKQAWERGVKIIGATAHFVNDCLDEGPIIKQDVISVDHTFSAEEMAHNGRDVEKSVLSKALQLVLNEQVIVYGNKTVVF | not soluble
11 | MGSDKIHHHHHHMKIAIITDGSVEMGMGHVYRTLSLANELRKFNVNEIIFFTKSDEDVIKKIEENGFKVIKCSDNNDILKNIKNIKPDVVIIDDLGIEEDFAKNIRELCKKLIFFDNPNPSSNKYADIVVNAIVGSELKNRKYFDEENKTLYFYGPKYLILRNEFYKVKKEMLSRSKNKETKNILIAFGGSDPSNLTCKVLEELLSKDRDFNINVVLGPKFQYEDELNNLLKRYSKSDKIKIYKNIDNMAELMKDNDLIITSPGMTMFEALFLGIPVVVLYQNELQRECYDDYLKKISKTHLNPLKEGYFIDAEHTDLHIGKGKFEIIEAITNIYNCKKIGEDSKIIIRQITDNDLELLMAWRSNPLIYKFFYIQKEPLKWEEHYSWWMSRENRVDWIILLRENNTIRKVGSVNVSQLNTDNPEIGILIGEFFLWGKHIGRHSVSLVLKWLKNIGYKKAHARILENNIRSIKLFESLGFKKTKKGRENEWIYEVNL | not soluble
12 | MGSDKIHHHHHHMYSCYNNFVKYALTMQFDIEVDVMYEVKLDAFNGPLDLLLHLIQKYEIDIYDIPMKALTEQYMQYVHAMNQLEINVASEYLVMASELLMIKSKLLLPQTSIEEDIEEDPREDLVGRLIEYQNYKEYTEILNTMKEERDLYFTKHPTDLTHLETNESWDPNQTIDLTELIVAYQRVKNRVELNTPKSVEIKKETFTIQQATAQVTERLKQHESFNFFSLFTFHEPVEQVVTHFLAILEMSKSGIVNIKQTKQFDDIDIIRGVNYSIG | not soluble
13 | MHHHHHHMGLELYLDLLSQPCRAVYIFAKKNDIPFELRIVDLIKGQHLSDAFAQVNPLKKVPALKDGDFTLTESVAILLYLTRKYKVPDYWYPQDLQARARVDEYLAWQHTTLRRSCLRALWHKVMFPVFLGEPVSPQTLAATLAELDVTLQLLEDKFLQNKAFLTGPHISLADLVAITELMHPVGAGCQVFEGRPKLATWRQRVEAAVGEDLFQEAHEVILKAKDFPPADPTIKQKLMPWVLAMIR | soluble
14 | MGRQAFEFGLRPKDQFKVMQHFDLNTNHLEVLNRLYTPLIGTQAVGLYHFMTQFVKDSHNETLILSHYIFMNELKINLLEFRQQMDLLEAIGLLKAFVKHDEQETQFVYQLIQPPSAHLFFNDPMLSIFLYSEVEHRRFHELKKYFEYQQIDLSEFKQVTRQFTDVFKVPSTKIDIDTSDIPINEPYQGIDLSNESFDFEMLRQMLGKHFISQDIVTKDAKRLITQLATLYGLTADGMKHVILNSITSGQQLSFEEMRKQARSYYLMEHENQMPKLQVKSPATSSSTGKSSEVNPKPQSDEWFELLEQTSPIDMLASWSESEPTISQKTMVEELIEREKMSFGVINILLQFVMLKEDMKLPKAYILEIASNWKKKGIKTAKEAYNYAKKVNQPKNEGSSGNYQKRGSYYGQRNRISKEKTPKWLENRDKPSEEDSAKDNSVDDQQLEQDRQAFLDKLSKKWEEDSR | not soluble
15 | SLSIYSFSQITRSLFLSNGVAANDKLLLSSNRITAIVNASVEVVNVFFEGIQYIKVPVTDARDSRLYDFFDPIADLIHTIDMRQGRTLLHCMAGVSRSASLCLAYLMKYHSMSLLDAHTWTKSRRPIIRPNNGFWEQLINYEFKLFNN | not soluble
16 | MSLSRRGRPKIPRFISEEPKFRIFKPHGVSLTEVDKVILSVDELEAIRLVDYLDYTQEEASKLMGISRRVLWSLLTEGRKKIADALINGKAIVIEGGEYKIRECGFCMRHRFGIKKHCRTWREELEGHHHHHH | not soluble
17 | MGPVPIKLALVIPNYNHSAAISQALSELAALNLPCYLIDDGSNDETRYLLQSLAEQHDWVTLLQHPYNRGKGAAVMTGLRSAYRDGFTHALQVDADGQHNLSDIPAMLAKAQAKPDALISGKPEYDKSVPKGRLYGRYLTHFWVWVETLSFDIQDSMCGFRVYPLAATERLFSKQALTERMDFDIEILVKLYWQGVEILFHPTKVIYPENGVSHFQCVADNVRISKLHTRLFFGMLKRLPQLLRRKQAAKSTSSAHTATHWSAMKERGSYWGIKLLVESYRFGGHWLCRAIMYPVICYFFLTGKVSREASRDFLRRVQHLEPQHPQLNQPVGWRDSLNHFIAFGNAALDRIDAWCDRIQLSQVDFPDRQVLADQLESGKGAVLLVSHLGNLELCRAISIHQRKVKVNVMVLTSHAENFNNVLKQLNPNSSLNLIQVTELNPATSMLLQQKIEDGELVVIAGDRTSSHAQGRVVYAPFMGQDAAFPQGPFILAGLLDCPVYLMFCLREQGRYRVHLERFAETLKGPRAGRMERLQQAVYRYSERLEHYARREPLQWFNFFDFWRDDNQVNRATSAHKTTAALPEQERTTDRTEHLLEHHHHHH | soluble
18 | MSTSGSGGGNTPDLSKENVASSPNANPKKNADTESSGGSKNNRQRRRSNTKGDGSNSRNGSRTNSVSNSKNQSNRKDWTDRKSFSQGGINVKSKSPGDDHKRTRSSNSQSAKRNARDSTRTMSQASNGEGLDYSDEYELDEPFSDSDDEDSRPKKPEKMSLTVARGRIRTLSGTVPVVGYSPRWGGPTMCVSCLEFFDLPEQISGFADHLLKEHKIVVSEMNLIVDPKRYIEHWRQRFAKESIDKIFPRIEPSEGDSYFGETDYYYLMSENVAEDRSLRQRLAMRRLEEALQCQQREREDTSFQLQCIFCRYNARGNRSKIIHHLYMIHHLNLGSPDNLVFVTEYIEHLKEKLHRNECIYCEKIFPDRNTLMDHMRKRNHREVNPKNHYYDKFYIINYLELGKRWLDVLAEDFEDTMPTFQDSDEEEEDNEWCEWQEDNLDADETRVVCLLCDASEDNAQSLLEHMKTTHEFDLLKNVSDDKLNSYQRLRLINYIRKQNYHADCWVCQKTEFENPLALQKHILEHKPLSHLPDASIWDTEENLVPIFGNDHFLWMLESILEENEITCSSDDEGESEERFSKLVLESKSNTVEGVIAEDLPELSELNEDDLNALM | not soluble
